Molecular target: Full-length DEMETER (DME) fused with the GAL4 DNA binding domain (Arabidopsis) (UniProt Q8LK56)
Assay: two-hybrid

Sequence of UniProt Q8LK56 (Q8LK56 whole entry, the tested form may be a part): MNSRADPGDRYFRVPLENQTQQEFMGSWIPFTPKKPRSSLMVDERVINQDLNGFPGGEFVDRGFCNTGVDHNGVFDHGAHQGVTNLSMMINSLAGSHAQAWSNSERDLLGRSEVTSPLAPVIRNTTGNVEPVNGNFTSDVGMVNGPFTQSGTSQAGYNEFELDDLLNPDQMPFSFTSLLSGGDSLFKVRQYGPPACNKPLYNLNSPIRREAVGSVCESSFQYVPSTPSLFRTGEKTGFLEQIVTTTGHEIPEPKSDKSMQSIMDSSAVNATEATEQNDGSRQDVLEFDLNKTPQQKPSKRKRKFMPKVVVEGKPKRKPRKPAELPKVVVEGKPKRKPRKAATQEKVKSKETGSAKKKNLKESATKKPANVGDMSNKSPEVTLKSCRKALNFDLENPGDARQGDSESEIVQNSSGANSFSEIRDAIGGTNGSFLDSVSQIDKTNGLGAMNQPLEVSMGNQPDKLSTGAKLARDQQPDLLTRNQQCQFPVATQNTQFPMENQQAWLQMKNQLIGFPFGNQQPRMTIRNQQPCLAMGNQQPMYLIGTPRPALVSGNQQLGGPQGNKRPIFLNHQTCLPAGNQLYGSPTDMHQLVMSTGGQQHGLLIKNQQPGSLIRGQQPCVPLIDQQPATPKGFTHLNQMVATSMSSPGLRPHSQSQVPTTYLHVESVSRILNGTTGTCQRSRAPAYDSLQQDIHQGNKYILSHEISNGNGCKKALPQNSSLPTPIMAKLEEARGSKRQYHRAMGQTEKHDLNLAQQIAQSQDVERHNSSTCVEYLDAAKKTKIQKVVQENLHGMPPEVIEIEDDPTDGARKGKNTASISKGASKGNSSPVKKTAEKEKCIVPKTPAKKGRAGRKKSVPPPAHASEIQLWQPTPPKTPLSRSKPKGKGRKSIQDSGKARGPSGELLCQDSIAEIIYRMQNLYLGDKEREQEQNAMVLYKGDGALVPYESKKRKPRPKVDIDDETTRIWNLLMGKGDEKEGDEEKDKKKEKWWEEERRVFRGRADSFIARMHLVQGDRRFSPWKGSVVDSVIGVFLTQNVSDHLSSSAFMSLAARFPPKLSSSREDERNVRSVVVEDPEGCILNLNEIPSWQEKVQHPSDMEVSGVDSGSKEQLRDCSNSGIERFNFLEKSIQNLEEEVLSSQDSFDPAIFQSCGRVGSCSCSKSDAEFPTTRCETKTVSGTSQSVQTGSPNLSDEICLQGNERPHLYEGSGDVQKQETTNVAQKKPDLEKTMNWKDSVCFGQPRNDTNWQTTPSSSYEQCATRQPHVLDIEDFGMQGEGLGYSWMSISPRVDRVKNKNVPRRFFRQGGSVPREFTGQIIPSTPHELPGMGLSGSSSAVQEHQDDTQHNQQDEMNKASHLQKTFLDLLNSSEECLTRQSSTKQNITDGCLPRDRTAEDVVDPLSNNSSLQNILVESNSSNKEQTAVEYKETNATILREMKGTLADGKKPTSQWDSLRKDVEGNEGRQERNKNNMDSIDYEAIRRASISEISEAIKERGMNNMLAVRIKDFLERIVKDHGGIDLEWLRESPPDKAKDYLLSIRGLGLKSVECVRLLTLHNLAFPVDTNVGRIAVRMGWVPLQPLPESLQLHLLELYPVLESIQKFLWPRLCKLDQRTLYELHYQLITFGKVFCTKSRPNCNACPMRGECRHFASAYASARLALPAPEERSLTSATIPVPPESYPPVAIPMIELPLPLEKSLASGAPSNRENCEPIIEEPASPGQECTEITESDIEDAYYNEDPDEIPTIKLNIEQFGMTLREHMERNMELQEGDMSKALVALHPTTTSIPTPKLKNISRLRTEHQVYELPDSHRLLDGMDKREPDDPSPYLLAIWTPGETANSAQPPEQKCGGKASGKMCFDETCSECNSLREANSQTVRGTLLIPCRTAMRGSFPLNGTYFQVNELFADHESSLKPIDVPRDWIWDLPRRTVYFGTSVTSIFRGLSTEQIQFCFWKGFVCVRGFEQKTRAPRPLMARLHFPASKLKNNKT

## Histone H1.2 fused with the GAL4 activation domain (natural protein)
  β-galactosidase activity: 1.67 units

Reference: PMC3429642
